From US20110159037A1

Key:
[1] = target: HIV-1 envelope gp41 (virus of the PBMC neutralization assay) (HIV-1, isolate not stated)
[2] = target: Centromere B (Homo sapiens (Human)) (UniProt P07199); test: Luminex AtheNA Multi-Lyte ANA Test, 0.15 µg mab per test
Histones = test: as above
Ro (SSA) = test: as above

Row | Substance | HIV Neutralization ID50 In PBMC assay [1] [µg/mL] | relative units (relative units based on a standard curve) [2] | further results
1 | 13H11 (antibody) | > 50 |  | 
2 | 98-6 (antibody) | 3.5 |  | 
3 | A32 (antibody) |  | 1130 | 
4 | IgG1b12 (antibody) |  | 479 | relative units (relative units based on a standard curve) (Histones): 185
5 | Mab 2F5 (antibody) | 1 | 1780 | relative units (relative units based on a standard curve) (Histones): 1010; relative units (relative units based on a standard curve) (Ro (SSA)): 290
6 | Mab 4E10 (antibody) |  |  | relative units (relative units based on a standard curve) (Ro (SSA)): 221
7 | soluble HIV-1 Env gp140 oligomers (CON-S) |  |  | IC50 (Mab 4E10): 145 nM
